This note sets out measurements from article PMC3246455, “Degradation of Pheromone and Plant Volatile Components by a Same Odorant-Degrading Enzyme in the Cotton Leafworm, Spodoptera littoralis” (PLoS ONE, 2011).

What all share (type): biochemical, Spodoptera littoralis
Substrate in data set [1]: CC/C=C/C=C\CCCCCCCCOC(C)=O
Briefly: GC of the released alcohol, nonlinear fit. The note with it: 5 min incubation, one-site fit, buffer and temperature not restated for kinetics (1 h assay: 20 mM Tris pH 7.4, 28°C).

Substrate in data set [2]: C/C=C/C/C=C\CCCCCCCCOC(C)=O
Briefly: GC of the released alcohol, nonlinear fit. As to conditions: 5 min incubation, one-site fit, buffer and temperature not restated for kinetics (1 h assay: 20 mM Tris pH 7.4, 28°C).

Substrate in data set [3]: CC/C=C\CCOC(C)=O
Kind of data set: GC of the released alcohol, as in an earlier paper. As to conditions: incubation and analyses as in ref 12; one-site fit.

B1: SlCXE7 (Spodoptera littoralis) (protein)
chain: DDEWREVKTAQGPVRGRKHPTEDIYTFYNIPYATAPVGVDRFKAPLPPPVWLQPYDAVEKPVVCPQPVFPFPELQLNKLVKQENCLIANVFVPNTNKKNLSVVVYVHGGAFIMGWGDMFRATQLMNKKDIIVVTFNYRLGVHGFLCLGTEDAPGNAGMKDQVALLRWVQKNIGSFNGNPDDVTIIGFSAGSASVDLLMLSKSAEGLFHRVVPESGGNLAAFAIQRDPVEIAKTYARQLNFTNVDDIYALGEFYKTAPLELLTSDPFFDRTDSTFLFSPCVERNMGQETFLTESPLTILKNGNYKKLPVLYGFAEMEGLLRVDFFPFWKQKMSDKFSDFLPADLTFKYEEEREEVANKVKRFYFGDEPVSEDNILQYVNFFSDVLFMHPMLWATKLHVEAGNNQIYLYELSFVAEEVPEVPHTNIKGVTQCGQSLAVLDGKNLTHKSHSEESLATPEYQKMKKTMREIWYNFIKKGKPVPEGSTRPAWPFAGADRSPHMSLGQKIEPRGVLLEKRTVLWDDINQRYFREPVPPPTPPPKSHAEK
notes: complete ORF amplified from male antennal cDNA, C-terminal V5/6His tag (tag kept), secreted from baculovirus-infected Sf21 cells, Ni-NTA purified from supernatant
Broadly, the Km is the concentration of substrate that gives half-maximal velocity. Usually kcat stands for the number of substrate molecules converted per active site and unit of time at saturation. Turning to B1, the Michaelis constant (Km) in data set [1] was found to be 56.6 ± 18.5 µM; in data set [2], 42.6 ± 13.3 µM; in data set [3], 1.6 ± 0.7 mM. The catalytic constant (kcat) in data set [1] was about 0.4 s⁻¹; in data set [2] it was about 0.4 s⁻¹; in data set [3], 36 s⁻¹.
